In the supplement of paper PMC9112550, “Optimization of the antimicrobial peptide Bac7 by deep mutational scanning” (BMC Biology, 2022):

Each sequence was assayed on Escherichia coli TOP10 (assay: shrunken log2 fold change of peptide-encoding DNA abundance (4.5 h post-induction vs induction); higher = less antimicrobial activity (less host growth inhibition)). Conditions: time post-induction: 4.5 h; library: site-saturation at positions 5, 18, 19, 20.
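Note: peptides expressed intracellularly from a pBAD plasmid library in pooled LB shake-flask culture, induced with 0.3% L-arabinose, DNA abundance read by NGS, three biological replicates, DESeq2 with apeglm shrinkage.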

Row | Sequence | shrunken log2 fold change
1 | RRIRHRPPRLPRPRPRPGEAPRP | 0.051
2 | RRIRHRPPRLPRPRPRPGGRPRP | 0.0167
3 | RRIRHRPPRLPRPRPRPGGYPRP | -0.258
4 | RRIRHRPPRLPRPRPRPGHTPRP | 0.105
5 | RRIRHRPPRLPRPRPRPGIHPRP | -0.2
6 | RRIRHRPPRLPRPRPRPGIVPRP | -0.286
7 | RRIRHRPPRLPRPRPRPGKPPRP | -0.00366
8 | RRIRHRPPRLPRPRPRPGKQPRP | -0.173
9 | RRIRHRPPRLPRPRPRPGKVPRP | -0.0067
10 | RRIRHRPPRLPRPRPRPGLCPRP | 0.101
11 | RRIRHRPPRLPRPRPRPGLNPRP | -0.0123
12 | RRIRHRPPRLPRPRPRPGMKPRP | -0.113
13 | RRIRHRPPRLPRPRPRPGMQPRP | 0.0824
14 | RRIRHRPPRLPRPRPRPGMSPRP | -0.0653
15 | RRIRHRPPRLPRPRPRPGPKPRP | -0.0906
16 | RRIRHRPPRLPRPRPRPGPMPRP | 0.247
17 | RRIRHRPPRLPRPRPRPGPNPRP | 0.813
18 | RRIRHRPPRLPRPRPRPGQKPRP | 0.00748
19 | RRIRHRPPRLPRPRPRPGRCPRP | 0.127
20 | RRIRHRPPRLPRPRPRPGREPRP | 0.0529
21 | RRIRHRPPRLPRPRPRPGRMPRP | -0.313
22 | RRIRHRPPRLPRPRPRPGTRPRP | -0.13
23 | RRIRHRPPRLPRPRPRPGVCPRP | -0.263
24 | RRIRHRPPRLPRPRPRPGYCPRP | -0.507
25 | RRIRHRPPRLPRPRPRPGYKPRP | -0.00663

Row | Sequence | shrunken log2 fold change
26 | RRIRHRPPRLPRPRPRPHCTPRP | -0.0731
27 | RRIRHRPPRLPRPRPRPHDSPRP | -0.03
28 | RRIRHRPPRLPRPRPRPHEFPRP | 0.0248
29 | RRIRHRPPRLPRPRPRPHGWPRP | 0.0177
30 | RRIRHRPPRLPRPRPRPHHLPRP | -0.0119
31 | RRIRHRPPRLPRPRPRPHIHPRP | -0.328
32 | RRIRHRPPRLPRPRPRPHKDPRP | -0.384
33 | RRIRHRPPRLPRPRPRPHKFPRP | -0.636
34 | RRIRHRPPRLPRPRPRPHKQPRP | -0.225
35 | RRIRHRPPRLPRPRPRPHLCPRP | -0.0468
36 | RRIRHRPPRLPRPRPRPHMAPRP | -0.0236
37 | RRIRHRPPRLPRPRPRPHNKPRP | -0.866
38 | RRIRHRPPRLPRPRPRPHNWPRP | -0.214
39 | RRIRHRPPRLPRPRPRPHQLPRP | -0.196
40 | RRIRHRPPRLPRPRPRPHQQPRP | 0.0121
41 | RRIRHRPPRLPRPRPRPHQYPRP | -0.52
42 | RRIRHRPPRLPRPRPRPHRCPRP | 0.0171
43 | RRIRHRPPRLPRPRPRPHRRPRP | 0.0762
44 | RRIRHRPPRLPRPRPRPHRTPRP | -0.179
45 | RRIRHRPPRLPRPRPRPHSAPRP | 0.0327
46 | RRIRHRPPRLPRPRPRPHSVPRP | -0.0237
47 | RRIRHRPPRLPRPRPRPHSYPRP | -0.191
48 | RRIRHRPPRLPRPRPRPHTQPRP | 0.0972
49 | RRIRHRPPRLPRPRPRPHVAPRP | -0.208
50 | RRIRHRPPRLPRPRPRPHYAPRP | -0.992

Row | Sequence | shrunken log2 fold change
51 | RRIRHRPPRLPRPRPRPHYNPRP | -1.11
52 | RRIRHRPPRLPRPRPRPHYVPRP | -0.057
53 | RRIRHRPPRLPRPRPRPIALPRP | -0.355
54 | RRIRHRPPRLPRPRPRPICWPRP | 0.0429
55 | RRIRHRPPRLPRPRPRPICYPRP | -0.178
56 | RRIRHRPPRLPRPRPRPIDRPRP | -0.263
57 | RRIRHRPPRLPRPRPRPIEHPRP | -0.394
58 | RRIRHRPPRLPRPRPRPIFMPRP | -0.0784
59 | RRIRHRPPRLPRPRPRPIGAPRP | 0.173
60 | RRIRHRPPRLPRPRPRPIHWPRP | -0.0298
61 | RRIRHRPPRLPRPRPRPIIDPRP | -0.0219
62 | RRIRHRPPRLPRPRPRPIISPRP | -0.247
63 | RRIRHRPPRLPRPRPRPIKRPRP | -0.0154
64 | RRIRHRPPRLPRPRPRPILWPRP | -0.0569
65 | RRIRHRPPRLPRPRPRPIMLPRP | -0.389
66 | RRIRHRPPRLPRPRPRPINSPRP | -0.404
67 | RRIRHRPPRLPRPRPRPIQKPRP | -0.00174
68 | RRIRHRPPRLPRPRPRPIQRPRP | -0.204
69 | RRIRHRPPRLPRPRPRPIRPPRP | -0.125
70 | RRIRHRPPRLPRPRPRPIRQPRP | 0.0104
71 | RRIRHRPPRLPRPRPRPISIPRP | 0.0201
72 | RRIRHRPPRLPRPRPRPIVTPRP | -0.388
73 | RRIRHRPPRLPRPRPRPIWRPRP | 0.139
74 | RRIRHRPPRLPRPRPRPIWTPRP | -0.311
75 | RRIRHRPPRLPRPRPRPIWVPRP | 0.0163
